Consider four molecules from paper PMC12047801 (PLOS Pathogens, 2025).

Test [1] has as its target USP7 (endogenous in SLK.iBAC-GFP cells) (human (endogenous in SLK.iBAC-GFP), UniProt Q93009 1-1102). The experiment in a line: cell-based or functional assay.
The target in test [2] is T1, Recombinant USP7-TRAF protein (human, UniProt Q93009 1-208).
T1 construct: also called USP7-TRAF domain
The experiment in a line: SPR; Biacore T200; USP7-TRAF immobilised on a CM5 chip by amine coupling to about 8000 RU; gradient concentrations of peptides injected at 30 μL/min; running buffer 0.05% (v/v) Tween 20 in PBS. The note with it: both partners purified. A general note: In SPR one partner is held on a chip, and binding of the other changes the refractive index at the surface.

In test [3] the target is T1, Recombinant USP7-TRAF protein. Description: SPR. The note with it: both partners purified.
Test [4] addresses T2, GST-USP7-murine TRAF WT (murine, UniProt Q6A4J8 1-208).
T2 construct: also called GST-mUSP7-TRAF WT; murine USP7-TRAF
The experiment in a line: pull-down. The note with it: both partners purified.

T1 sequence (Q93009 1-208): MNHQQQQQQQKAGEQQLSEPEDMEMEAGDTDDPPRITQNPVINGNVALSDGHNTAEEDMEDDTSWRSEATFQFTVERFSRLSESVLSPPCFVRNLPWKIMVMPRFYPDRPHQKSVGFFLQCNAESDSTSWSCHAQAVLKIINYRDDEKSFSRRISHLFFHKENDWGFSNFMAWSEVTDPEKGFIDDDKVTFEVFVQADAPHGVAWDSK
USP7 (endogenous in SLK.iBAC-GFP cells), sequence (Q93009 whole entry): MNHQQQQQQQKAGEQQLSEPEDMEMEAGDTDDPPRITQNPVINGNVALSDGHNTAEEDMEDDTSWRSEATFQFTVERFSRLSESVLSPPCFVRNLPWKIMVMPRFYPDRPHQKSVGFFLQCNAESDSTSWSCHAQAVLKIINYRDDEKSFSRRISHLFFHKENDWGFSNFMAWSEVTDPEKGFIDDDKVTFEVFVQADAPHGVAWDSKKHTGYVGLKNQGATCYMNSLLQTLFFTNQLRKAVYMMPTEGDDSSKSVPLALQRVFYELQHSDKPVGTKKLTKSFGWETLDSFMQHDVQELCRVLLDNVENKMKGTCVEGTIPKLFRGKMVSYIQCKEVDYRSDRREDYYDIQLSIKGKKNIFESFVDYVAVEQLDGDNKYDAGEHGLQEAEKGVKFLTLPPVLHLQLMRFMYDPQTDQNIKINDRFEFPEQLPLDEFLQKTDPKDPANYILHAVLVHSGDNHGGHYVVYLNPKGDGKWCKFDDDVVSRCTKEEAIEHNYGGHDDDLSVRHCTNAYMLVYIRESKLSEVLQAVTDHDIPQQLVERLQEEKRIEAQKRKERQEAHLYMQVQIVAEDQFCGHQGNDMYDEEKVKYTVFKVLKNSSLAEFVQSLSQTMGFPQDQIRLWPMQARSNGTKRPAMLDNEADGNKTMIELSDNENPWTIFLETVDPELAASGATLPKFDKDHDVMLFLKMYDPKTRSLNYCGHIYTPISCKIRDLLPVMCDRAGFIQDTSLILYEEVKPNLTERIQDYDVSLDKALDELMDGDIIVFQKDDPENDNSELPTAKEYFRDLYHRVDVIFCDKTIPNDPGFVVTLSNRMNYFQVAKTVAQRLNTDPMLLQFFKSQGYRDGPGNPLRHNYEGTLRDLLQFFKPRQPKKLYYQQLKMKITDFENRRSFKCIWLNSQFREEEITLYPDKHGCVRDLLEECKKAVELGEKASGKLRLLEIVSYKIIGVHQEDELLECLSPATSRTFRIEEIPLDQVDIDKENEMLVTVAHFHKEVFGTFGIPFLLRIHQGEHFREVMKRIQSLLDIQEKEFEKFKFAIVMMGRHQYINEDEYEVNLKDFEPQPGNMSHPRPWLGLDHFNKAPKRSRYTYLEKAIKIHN
T2 sequence (Q6A4J8 1-208): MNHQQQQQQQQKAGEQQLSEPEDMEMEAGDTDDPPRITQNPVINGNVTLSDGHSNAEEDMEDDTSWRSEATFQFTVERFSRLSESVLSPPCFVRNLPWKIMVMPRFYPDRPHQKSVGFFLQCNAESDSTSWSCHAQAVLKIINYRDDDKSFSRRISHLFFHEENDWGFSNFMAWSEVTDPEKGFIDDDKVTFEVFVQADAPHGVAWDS

B1: p8 fused to an N-terminal Tat(47-57) peptide via a GG linker (peptide)
peptide: Ac-YGRKKRRQRRRGGVNQSASQSSN-NH2
On to B1, for which the “IC50 of inhibition of KSHV lytic reactivation in SLK.iBAC-GFP cells (blocks OTUD4-USP7)” value in test [1] is 52.6 µM.

B2: p2 (peptide)
peptide: Ac-EVADEDNSEI-NH2
notes: also called peptide p2
One may read the Kd as the equilibrium constant for the complex coming apart. Take B2: in test [2], the Kd is 9.02 µM.

B3: p8 (peptide)
peptide: Ac-VNQSASQSSN-NH2
notes: also called peptide p8; human-derived p8
Consider B3, for which the Kd in test [3] is 3.16 µM.

B4: p8-m (peptide)
peptide: Ac-YGRKKRRQRRRGGVSQSPSQNSN-NH2
notes: also called murine-derived p8
For B4, in test [4], the binding result was “binds”.
